Two substances from article PMC4557345 can be followed below.

The target in this assay is Drosophila Orai (dOrai), expressed in HEK293T cells (Drosophila) (UniProt Q9U6B8).

Some results are limits rather than exact numbers.

Sequence of UniProt Q9U6B8 (Q9U6B8 whole entry): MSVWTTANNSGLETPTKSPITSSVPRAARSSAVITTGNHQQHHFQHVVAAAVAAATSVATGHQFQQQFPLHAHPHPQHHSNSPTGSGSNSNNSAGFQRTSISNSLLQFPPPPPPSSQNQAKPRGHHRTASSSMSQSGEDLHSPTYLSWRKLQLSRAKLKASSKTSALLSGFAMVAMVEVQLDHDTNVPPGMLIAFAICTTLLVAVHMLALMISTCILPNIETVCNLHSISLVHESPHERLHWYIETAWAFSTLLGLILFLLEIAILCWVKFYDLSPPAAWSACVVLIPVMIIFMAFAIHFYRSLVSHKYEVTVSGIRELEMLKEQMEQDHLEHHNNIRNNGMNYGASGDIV

For the substance dmBACCS2-N425S, the recovery time constant of the light-activated whole-cell current (patch clamp, HEK293T), against dmBACCS2 (fold of dmBACCS2) is below 0.5. For dmBACCS2-V416L the value was above 100.
